# Test results reported in patent US20040038883A1 (published 2004).
# T1: SGK
# T1 chain: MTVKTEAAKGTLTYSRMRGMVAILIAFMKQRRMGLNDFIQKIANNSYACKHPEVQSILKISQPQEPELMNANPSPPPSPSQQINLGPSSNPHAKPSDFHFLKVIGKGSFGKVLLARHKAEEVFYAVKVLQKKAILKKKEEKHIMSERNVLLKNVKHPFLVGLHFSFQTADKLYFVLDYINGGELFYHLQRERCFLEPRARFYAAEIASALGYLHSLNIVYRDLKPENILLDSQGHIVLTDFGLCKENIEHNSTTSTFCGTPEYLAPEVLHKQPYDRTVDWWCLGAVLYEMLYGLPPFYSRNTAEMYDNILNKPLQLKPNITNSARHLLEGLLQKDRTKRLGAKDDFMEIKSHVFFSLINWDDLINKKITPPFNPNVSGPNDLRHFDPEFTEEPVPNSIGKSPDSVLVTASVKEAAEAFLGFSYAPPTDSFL
# Legend:
# SGK = target: T1, SGK; test: in vitro SGK kinase activity assay, 33P-ATP, Flash Plate
# Src = target: T2, Src; test: in vitro Src kinase activity assay, 33P-ATP, Flash Plate
# T2 construct: Bought enzyme
# Cdc2 = target: T3, Cdc2; test: in vitro CDC2 kinase activity assay, 33P-ATP, Flash Plate
# T3 construct: Bought enzyme
# PKCδ = target: T4, PKCδ; test: in vitro PKC delta kinase activity assay, 33P-ATP, Flash Plate
# T4 construct: Bought enzyme; also called PKC delta
# PKCγ = target: T5, PKCγ; test: in vitro PKC gamma kinase activity assay, 33P-ATP, Flash Plate
# T5 construct: Bought enzyme; also called PKC gamma
# PKA = target: T6, PKA; test: in vitro PKA kinase activity assay, 33P-ATP, kemptide substrate, Flash Plate
# T6 construct: Bought enzyme
# [1] = target: T7, Akt wild-type recombinant protein (Akt1) (Homo sapiens (Human), UniProt P31749 1-480, as many as five phosphorylations seen by ESI-MS (positions not stated)); test: in vitro Akt1 kinase activity assay, biotinylated Bad-derived peptide substrate
# T7 construct: also called Akt1 wild type
# T7 sequence (P31749 other isoform, or with tags, fused parts or gaps limits assumed): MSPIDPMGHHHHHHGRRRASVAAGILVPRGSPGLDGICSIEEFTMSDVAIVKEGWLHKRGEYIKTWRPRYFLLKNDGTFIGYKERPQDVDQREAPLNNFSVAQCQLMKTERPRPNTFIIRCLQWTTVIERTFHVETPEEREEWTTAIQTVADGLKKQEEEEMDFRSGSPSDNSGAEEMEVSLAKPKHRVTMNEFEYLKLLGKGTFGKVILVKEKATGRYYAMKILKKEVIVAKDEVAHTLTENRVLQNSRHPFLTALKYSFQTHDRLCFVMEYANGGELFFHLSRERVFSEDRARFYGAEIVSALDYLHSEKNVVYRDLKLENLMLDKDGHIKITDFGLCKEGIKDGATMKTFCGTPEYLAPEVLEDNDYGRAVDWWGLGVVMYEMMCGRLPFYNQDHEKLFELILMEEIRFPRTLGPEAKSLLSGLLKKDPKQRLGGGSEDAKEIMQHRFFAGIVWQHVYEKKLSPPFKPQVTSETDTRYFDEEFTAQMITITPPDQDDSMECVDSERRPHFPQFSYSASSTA
Binder,Ki (SGK),Ki (Src),Ki (Cdc2),Ki (PKCδ),Ki (PKCγ),Ki (PKA),Ki [1]
VELDPEFEPRARERTYSFGH [Peptide 1],1 µM,> 33 µM,> 33 µM,> 42 µM,> 30 µM,> 34 µM,1.11 µM
VELDPEFEPRARERAYAFGH (Made from peptide 2 by changing Thr at position 15 to Ala) [Peptide 4],12.5 µM,> 33 µM,> 33 µM,> 42 µM,> 30 µM,> 34 µM,0.095 µM
